From patent US20240124605A1 (published 2024) come the findings set out here.

For experiment [1], the target named is T1, CD123 expressed on the surface of cells (OCI-AML2, MOLM13, NALM6-CD123+) (human, UniProt P26951 19-378).
T1 chain: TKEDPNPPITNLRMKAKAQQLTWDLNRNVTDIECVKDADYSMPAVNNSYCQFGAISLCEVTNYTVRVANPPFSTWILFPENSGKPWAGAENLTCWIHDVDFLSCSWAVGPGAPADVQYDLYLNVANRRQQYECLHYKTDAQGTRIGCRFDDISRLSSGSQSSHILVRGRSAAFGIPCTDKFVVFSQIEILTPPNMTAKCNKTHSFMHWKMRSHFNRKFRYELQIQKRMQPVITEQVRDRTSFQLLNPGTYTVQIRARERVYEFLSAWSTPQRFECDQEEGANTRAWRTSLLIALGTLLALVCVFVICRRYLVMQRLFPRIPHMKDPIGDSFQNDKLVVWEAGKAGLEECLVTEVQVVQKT
In words: flow cytometry.

In experiment [2] the target is T2, CD123-Fc (Sino Biological) (human, UniProt P26951 19-305).
T2 construct: Bought reagent; not shown: Fc of the bought fusion (detected with anti-human Fc, captured on AHC sensor)
T2 sequence: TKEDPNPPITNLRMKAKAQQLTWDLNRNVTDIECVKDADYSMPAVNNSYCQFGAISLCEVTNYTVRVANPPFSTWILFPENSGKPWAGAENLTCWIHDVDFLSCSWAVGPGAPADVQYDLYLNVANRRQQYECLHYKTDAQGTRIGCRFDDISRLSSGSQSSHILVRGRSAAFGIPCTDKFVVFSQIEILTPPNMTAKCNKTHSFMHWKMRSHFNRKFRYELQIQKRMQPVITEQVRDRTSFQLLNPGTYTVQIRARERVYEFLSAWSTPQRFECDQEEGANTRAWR
Description: BLI (Octet), CD123-Fc captured on AHC sensor, Adapter 500-0.69 nM in solution, global 1:1 fit, 25 C. The protocol:
To assess the kinetics of CD123 binding, Adapter proteins comprising the D domains were analyzed using Bio-Layer Interferometry (BLI). Adapter proteins comprising a CD123-binding D domain and a P26(Q26-V229) AFP polypeptide (SEQ ID NO: 39) were generated through transient transfection of HEK-293 cells, followed by Ni-Sepharose Excel (Cytiva) and SEC chromatography. BLI experiments were performed using an Octet RED386 (Sartorius). All experiments were performed at 25° C. in kinetic buffer (PBS, 0.1% BSA, 0.02% tween 20) under constant 1000 rpm agitation. CD123-Fc (20 nM) was captured on an AHC sensor (Sartorius) for 250 seconds to a loading density of ˜0.8 nm. […] The surface was regenerated by 3 rounds of 10 seconds of 10 mM Glycine pH 1.5, followed by kinetic buffer. The data was analyzed using a global fit with a 1:1 interaction model from Sartorius Octet Analysis studio.
For orientation: Biolayer interferometry detects binding as a change in optical thickness at a sensor tip.

The target of experiment [3] is T2, CD123-Fc (Sino Biological). Description: method not stated in the sentence (BLI of Adapters follows).
For experiment [4], the target named is T2, CD123-Fc (Sino Biological). Description: ELISA: MBP fusion captured on anti-MBP antibody, detected with CD123-Fc + anti-human Fc HRP. The procedure:
Parent and mutated variant D domains were expressed as MBP fusions in E. coli (T7 Express, New England Biolabs) by either IPTG (isopropylthio-(3-galactoside) induction for 4 hours at 37° C. in Luria broth containing antibiotics and 0.2% glucose or through auto-induction for 16 hours at 30° C. using MagicMedia (Life Technologies). Post induction, cells were pelleted, washed and resuspended in “leak-out buffer” comprising 200 mM Tris pH 7.5 and 20 mM EDTA. After incubation at 30° C. for 16 hours, supernatant containing MBP fusion proteins were assayed by ELISA for both target binding and expression. Supernatants were added to 96-well Immulon 4HBX microtiter plates coated with anti-MBP polyclonal antibody (Abcam) at 0.0032 ug/ml. Followed by washing, bound MBP fusion proteins were detected either with CD123-Fc (Sino Biological)+anti-human Fc HRP (Abcam) to assess CD123 binding, or with anti-MBP-HRP (New England Biolabs) to assess MBP fusion protein expression.

B1: Adapter protein comprising the 5B1Q D domain and a P26(Q26-V229) AFP polypeptide (designed binder)
chain: MGSWDEFSRRLYAIEWQLYAQGGTEAELAAFEKEIAAFESELQAYKGEGSPEVEKLRELAAVIRENLQAYRHNQESQALAKRSCGLFQKLGEYYLQNAFLVAYTKKAPQLTSSELMAITRKMAATAATCCQLSEDKLLACGEGAADIIIGHLCIRHEMTPVNPGVGQCCTSSYANRRPCFSSLVVDETYVPPAFSDDKFIFHKDLCQAQGVALQTMKQEFLINLVKQKPQITEEQLEAVIADFSGLLEKCCQGQEQEVCFAEEGQKLISKTRAALGV
notes: also called 6T1D(G8S, L21Q, K48E, N50S, I59L); not shown: His tag (purified on Ni-Sepharose)
In turn, B1 came in with an EC50 in experiment [1] of 3.22 µg/mL. In experiment [2], this molecule registered a Kd of 0.73 nM, a koff of 0.000136 s⁻¹ and a kon of 187000 M⁻¹ s⁻¹. For the same molecule, the “fold enhancement of affinity over that of 6T1D” value in experiment [3] was approximately 10 fold.

B2: 5B7L D domain as MBP fusion (designed binder, not shown: large carriers)
chain: MGSWIEFNMRLDAIYERLVALGGSEAELAAFEKEIAAFESELQAYKGKGNPEVEWLRKVAANIRLELQAYRHN
With B2, in experiment [4], the binding result is “binds”.

What is called EC50 is the concentration needed to bring the measured effect to its halfway point. The low end stands for greater potency, the high end for weaker potency. A word on the Kd: it is the equilibrium constant for the complex coming apart. The low end stands for tighter binding, the high end for weaker binding. Usually koff stands for the rate constant with which the complex falls apart. A high value points to fast dissociation. For orientation: kon means the rate constant with which the complex forms. A higher kon goes with fast association.
